This passage reports protein production results from a protein production outcome set (Wang et al. 2014).

A short description of this data set: label from the status in PepcDB records.
For the sequence “MIELQLELFPGHIAGLLLVELSKPVEDFASIFIQGTWECALLDAGVVFHKSQLLTAVNVAFQRFEAGRLKTHSLHNEVMLALSAKLSIRDGLAAVRFSWEKTRCLVVAVDPPASFPQAAESTSNALAAKVRHFPEGANELFNELLVHVDKPSIQNLYGTDIDPHWICTKIATVEYVRQLR”, the protein production result was “failed”. In the case of “MSRTIAETPRPAVASMSSGCIPPHHRPDTLKQRWGTPAAVCLLVTCLFAMTLLTTGCKPPRRTPPTLPDRPDMATVEQPVVPPATVDGKDLDAPQTPKERIALALRLLDDGGDGADPTQAVQLIEQDATTGYAPAQDLLARLSLEGYGTAKDPARAFALAIEAARQGLPDAQRLAGTMYTLGLGTARDLEQGMRWLREAADAGDGEAAAMVADYYRQGLGVERNDTEAFLWTHRAAERGVKRAALWLGLHYHYGVGTPADQKQAFALLRPFADEGDAEALTIIALLLHKGEGVAQDRKAALRYFEKGAAAGDPVAQLDLGVLYHQGDGVTRDMDKARGLFRQCAEGGNARCMTLYASMLEEGEGGPSDPAEALAWYMVASMAGDDDATPFLDDLRSRITAEQAAQGKVRATAIIRSLTASPAADEASRQSSGQTAGQASGHASGQTPESTSARTSAPVPSALPREAAGKRPTVLP”, the protein production entry was “failed”. With “MMTTRNGSLRFFNHTFSFYDEATCVVREEELQRELMPRHVSFILDGNRRWAKRDGLTTAQGHEAGTKRIIEIAERIGEETRKEVRVSVIGNKTKIPESLLKEIHEIEEATKATRISISSWQ”, the protein production entry is on record as “failed”.

Consider “MNVLSLGSSSGVVWGRVPITAPAGAATGVTSRADAHSQMRRYAQTGPTAKLSSAPMTTMWGAPLHRRWRGSRLRDPRQAKFLTLASLKWVLANRAYTPWYLVRYWRLLRFKLANPHIITRGMVFLGKGVEIHATPELAQLEIGRWVHIGDKNTIRAHEGSLRFGDKVVLGRDNVINTYLDIEIGDSVLMADWCYICDFDHRMDDITLPIKDQGIIKSPVRIGPDTWIGVKVSVLRGTTIGRGCVLGSHAVVRGAIPDYSIAVGAPAKVVKNRQLSWEASAAQRAELAAALADIERKKAAR”, for which the protein production entry is “failed”. Consider “MQKNFSVVKKYVNLILDIVLGILGVFLLVFMASYLVDLATYLMKPMTPDNFSVIMQEIISFFMLFEFIMMILRYIQEGHHIPIRYLILICLTAILRQLMVAHGDGLQTLLLSLSILLLVVVLFILGLNGSKFYTLGKAKVEEDHEQDFHH”, for which the protein production result is reported as “failed”. The value for “MQINLSDLHLLRPLWLLLIIPGALLPWLWQRRHDLLARLRGTIAPHLLTHLLVTPQDSQRLRPVHLLSALLVLGALAAAGPTWEQDRPDFLHNRAPLIIALDLSPSMNASDLPPSRLEAAKHKLQQLVQQRRGARTGLIAYAGSAHLVLPASDDPALLDSFIQALGSDLIQRPGKDVLGVIRQAQRLLQAEHSPGSLLLISDGADTSQLAAIKQQLAGSPLQVLILAAGSSDGGIIRDASGQPLTDSDGRPQLGRFDSAALKQLAAASDAPLGSLTLNDDDLDWVQLHAQQHFTAASAPDRQLQWKDAGYWLCWPLLLLAFCCVRRGWSLNWLGALLLGLGLSLQAPTARANTLADAFFSADQQGRWAFEHGHYPAAAALFTDPYWKGIAAYKAADFDLALASFARLDSAAAYFYLGNIHVRRFKFDEAIAAYQQALKLQPRFAEASANLALAQALKKDTESAQQNAPEVKPDAIKFDKPAGKGQNKKVETQEAASDELWLQNLSTSPAAFLRQKFSLQDLDNTTPQVTP” was “failed”.

In the case of “MGTIESYLTNSYNYIIFNFKKLCIGGLMSAIVGAMSGVTTAFIDLFMERANYDIMHIIMSFLIYFGIIFIIGLIVSAIIGGYNVRIMKTTVEGLNVAPDWNNITDLLYRGILYIVGLVLLNIIFYFIPAILFVFGIFSLYISKIIGAFLIIISILIFIISVISLWLYSKLAEVNYSVKGFYGFFEFKEIFKMIGIRYIILVIIIAIINFIISLIVVLPLNIIDIFISYSALANSILTIIYISIKGISYALSTFVDFYLGVFSIRAVALYYKDRKGIT”, the protein production result is on record as “failed”. As to “HPLLAGIPFRQLARPLMQDLAYSVRGTVSIGLLDGPSVVYVETARSGDVGPHTPDIGMPIPVVRTAMGRAAASTLPEAEAERLDRQLEAADGAMWASHRDLYRDGLRQCAERQFCTCFGDYLPAIHAVAAPLFRQRDRSFAINCGIPAFRLQPGQLEDEIGPRVRALAESIRALGVDPE”, the protein production result is on record as “failed”.

In the case of “MKKFAIMGLGTFGVRMLDELIKIGAEVIIIEQNKDLIEMYKSKASSAIVLEEISELSVRKILPSKVDTVIVDFGRKVELSVISTTILKNLGIANIVVRAQSDEHGRLLKTVGATRIIYPDSEAAKRTTPILAADLLLKFMPISKNLALAEVGVEARYVGKSLAESNIRKDMGVNIIARRKKESEDFIFMDDPEYKFEEDDVLLVVASEEHIYNFSGGKISLKNNLKKDGEIKPSIFKNLFSSKKV”, the protein production result is listed as “failed”.

On to “MSDRSSLFDVRSSTSVTLDQVVRRDTVEIPDEAALAMPVQPLSFWQGGARRATALTQDMNLRRWMLGLMTIAMGVAGWKASFDTIALGGVTRLEAVVLTLLAPLFLALSLWFCTALIGFVVLMGRPKDPLGIDSEAPMPKLHTRTAILMPVYNEDAAAVFARLRAMDASIAETGSARNFDIFVISDTRDAQVALAEQACFARFRREANCNVYYRIRKENTGRKAGNVADWVSRWGSAYEHMLVLDADSLMTGEAMVRLADAMERHPGAGLIQTMPMIINGQTIFARTLQFATRLYGRVAWTGLAWWSGSESSFWGHNAIVRTRAFAETCGLPHLPGPKPFGGEVMSHDALESALLRRGGWSVHLAPYLDGSYEESPSNLLDFATRDRRWCRGNIQHVPLIALPGLHWMSRMHLVIGVLSYALSPLWFFCLSAGLISRALMPELKKAAFTMADLKAAAHALIDWSEIQATAWAMIITFVLLFGPKILGAILVLARKGEVKGFGGKRRMAAGLGVEMLLSALVAPMLMFTQTRAIVEILAGKVGGWAAQRRDADKVDFKEAWAAMGWISLSGLILAASFWFTPDLLTATAPILAGLVLAVPLTMLGAHKVAGLKLKANGLFMTPEERRPPAIVRAAVGAACEPPIRWFARNGRPIGPTTKIRDAA”, for which the protein production result is listed as “failed”.

In the case of “MNVFARSSVLAAEMIDVFDRTHTEKELVFQSKELCRDFIHSRITREGLSWSKVELDLPEPRGVLVDVSVVLLKLGDELECMRPYVYRNIAKQLNISVSVEAVVSDAFLSVATEVIAMGITWGKVVAIYAVAAGLAVDCVRLGHPVMVHTIVDSLGEFVRRSLVPWLKKRGGWVDILKCVVNMDSRAHVHWLSTAVLTWREFIKTMYVYLTK”, the protein production result is reported as “failed”.

With “SSFQSTTGHCVHMRGLPYRATENDIYNFFSPLNPMRVHIEIGPDGRVTGEADVEFATHEDAVAAMAKDKANMQHRYVELFLNSTAGTSG”, the protein production entry is listed as “not failed”. In the case of “MNRFIGYIQVACCCLLLCASCVRDGMDEDCNSYVRFVYDYNLEYIDLFHKQATKMNLYVFDEKGVFVTELKEESGAFAPDYLMTLPGAMAGRRYIFVAWSGLYGESYDKVTLTPGVSTLEDLEVSVNNLKTRIGGGVVDRELHLLWHGKQTEVSPQYNNDITTVSLLKNTKKFRIIMQMLDDSSIHVDDYDFRIISPNGRYNHENGLLGDETDEKVEYTAYHTEDDPETGAIAELNTLRLMTDTENRLVITHKSSGNVILDIPLNKYLNALRLQQYADIPLQEYLDRADKHGIILFFKGMDGNGNYISVDVQINGWLIRKQEVDGV” it was “failed”. As to “MAQHFLLTQKAKTLSAFEIANISEAEAFDLLCEARWGSKENVVCSKCGVQHKAYFISIRKQWRCKHCHHTFSVTSGTIFANHKLPLKTYLYILIRFVNAVKGVSALEISRDAKINYRTAFVLCHKLRKALLESRDMQPLSGEVDMGGTYIHPAPRKANKKADRIDYRLKENQNPNKRCVVVAREHFSADEKAENSLYRGAKRSHVFVTYSETQSVVKNFAHAYIEKNSRINTDENTAYESLLLDYDLRTVNHKDEYRSDFGVTNNQAESFFSRFKRMYYGHVHKMSNTYLLNYANEIAYREDNRRKPNGWQFHDILGKCLETTNEQNEWCGYWQRKIFHQEVIWQ”, the protein production result is given as “failed”. For “KYYWNNVNYDPATLFSASCLLFYVLDAIIFEHHLSSSFELQHEGYGCLLLLRYAATPYLLTAVTKYFYEQRVPISCWYAPLAVAALLSLGLLVKRFSCAYKYKYRLNSQSPIFANIETIHTYQGSRLLLSGMWGWVRQPNYLGDIVALLALAAPMALRPAWPPVLGLSLIILLLLHRATRANARNQARYHSSWQRYSTQVRSYILPRVY”, the protein production entry is “failed”.

With “MHNDFNLLILSGPSGAGKSTLTKYLQEKIPKTHFSLSTTTRKPREGEVDGLHYNFVSEEEFKQGIEKGQFLEWAIVHNHYYGTSKIPVEKALKEGKIVIFDIDVQGHEILKKHYPNACSVFISTKNQEILKERLLLRGTDSKETIEKRLINAYKEMQCLESFDYLIINEDLEKSKEIILSIAKTLVHRLKAFNFEKICKAWKNETL”, the protein production result is given as “failed”. Take “MGEGGQRATPSVTKIVGGEMAARVRAFDWSKTPLGPREDWSPALRLATDIVLASNFPMALRWGPELVLIYNDGYAPALHERHPSALGQSFYDTTPEFQAALRELHQDILTGTSGGFAFERLPLKVLKNGVLEAAYFTVNYSPVPDETAPNGIGGVLVAAVEISQSVKAEQTLRATQERYQ”: the protein production entry is on record as “failed”. In the case of “MNELLLITFSPLVAGVLAWLVRIRGVRESLGILGAIVPLAFLIKLYPSLDHPIRATISLGGFELGFSMSHLNWVFSMIAAVVGLSAVFGMASTAKDSYEWLFSLMSLTGALGIFMAQDLVTFFIFWEVMTFSSFMMVLKFNRAASLKYLILSIIGAYSMLVAIGIIYAKTGTFTFADISAFFRKEAMLAMLGGKSTFSRFDMALIYLLFLMAFGVKAGMFPLHVWAPDAYSETDQSYTAIFSGVLSKTGVYGFILLYVLMYGKLLIDLGQFKGTPLFGYIIAFLGGLTIIIGGVLAALQEDIRKLFAYSSISQVGYILVGLGIGTSLGIEAAIYHAISHALFKGLFFLVVATIIYRTGKTEFKDFGGLAEKMPFTFAMAFIAILSLAGIPPLVGFASKWLIFEAVISQKLPILGGMLFFGSAIGFVYLIRFTYAVWFGQRPSDIEDTKDAPLPLAIGMGILGTLNVVFGVAPGLVAKELNAIFGNPVIGGNIWELDLGFGRYNALLVAIWLVIGVLIAAILYFLGASTRKVPVTDTYQSGNPVTMEYNLTIRRNFFLPLKETMAFWLRISFDKLYKDTWKAIEDFAETARNYIYNGNVQAYAWYLAIILLILAAMGV” it was “failed”; in that of “MSRSPEQDSDWMTGVGDSAAGESARVARLVRVAQHIEMHADEALTLSSLAKVAALSPSRLQKQFKAAFGVSPKAYQDAVRMRRFKQSLKDGSKVTDAIFASGFGSVSRVYGEANRSIGMPPRAYRAGGAGEVIVYAGRTTALGLMMMAATERGVCFVEFGDDEASLVGRLRSEFPKAELTASPARNAPELDAWMEALDQHISAGAPRPDLPLDMRGTAFQVKVWQFLLSIREGDVLSYSEVAARIDKPRAVRAVASACGKNRIGVLIPCHRVLRGDGGLGGYRWGLERKRALLEAERRSVTRE”, “failed”. As to “MARAVHRSGLVALGIATALMASCAFAAKDVVVAVGSNFTTLDPYDANDTLSQAVAKSFYQGLFGLDKEMKLKNVLAESYTVSDDGITYTVKLREGIKFQDGTDFNAAAVKANLDRASDPANHLKRYNLYKNIAKTEAIDPTTVKITLKQPFSAFINILAHPATAMISPAALEKYGKEIGFYPVGTGPYELDTWNQTDFVKVKKFAGYWQPGLPKLDSITWRPVADNNTRAAMLQTGEAQFAFPIPYEQATLLEKNKNIELMASPSIMQRYISMNVTQKPFDNPKVREALNYAINRPALVKVAFAGYATPATGVVPPSIAYAQSYKPWPYDPVKARELLKEAGYPNGFSTTLWSSHNHSTAQKVLQFTQQQLAQVGIKAQVTAMDAGQRAAEVEGKGQKESGVRMFYTGWSASTGEADWALSPLFASQNWPPTLFNTAFYSNKQVDDFLAQALKTNDPAEKTRLYKAAQDIIWQESPWIPLVVEKLVSAHSKNLTGFWIMPDTGFSFEDADLQ”, the protein production entry is “not failed”.
